This test has as its target Clostridioides difficile toxin A (Clostridioides difficile, strain not …, UniProt P16154). Kind of test: SPR. Conditions: both partners purified.

Positions count from the first letter of the chain named.

B1: A26.8 VHH, wild-type (canonical Cys23-Cys104 disulfide linkage only) (VHH)
VHH: QVKLEESGGGLVQAGGSLRLSCAASERTFSRYPVAWFRQAPGAEREFVAVISSTGTSTYYADSVKGRFTISRDNAKVTVYLQMNNLKREDTAVYFCAVNSQRTRLQDPNEYDYWGQGTQVTVSS
Consider B1, for which the Kd worked out at 16.5 nM, the koff came to 0.0259 s⁻¹ and the kon amounted to 1.57e+06 M⁻¹ s⁻¹.

B2: A26.8 VHH with engineered Cys4-Cys25 disulfide linkage (VHH)
VHH: B1 VHH with L4C, A24C
B2: the Kd is 12.6 nM, the dissociation rate constant (koff) was determined as 0.062 s⁻¹ and the association rate constant (kon) is 4.93e+06 M⁻¹ s⁻¹.

B3: A26.8 VHH with engineered Cys22-Cys88 disulfide linkage (VHH)
VHH: B1 VHH with S21C, Y80C
The molecule B3 came in with a Kd of 18.7 nM, a koff of 0.028 s⁻¹ and an on-rate constant (kon) of 1.5e+06 M⁻¹ s⁻¹.

B4: A26.8 VHH with engineered Cys4-Cys118 pair (VHH)
VHH: B1 VHH with L4C, W114C
In turn, B4 displayed a Kd of 43.4 nM.

B5: A26.8 VHH with engineered Cys6-Cys119 disulfide linkage (VHH)
VHH: B1 VHH with E6C, G115C
B5 showed a Kd of 12.6 nM, an off-rate (koff) of 0.0691 s⁻¹ and a kon of 5.5e+06 M⁻¹ s⁻¹.

B6: A26.8 VHH with engineered Cys24-Cys86 disulfide linkage (VHH)
VHH: B1 VHH with A23C, T78C
The molecule B6 came in with a Kd of 43.6 nM, a dissociation rate constant (koff) of 0.0271 s⁻¹ and a kon of 621000 M⁻¹ s⁻¹.

Broadly, the Kd is the equilibrium constant for the complex coming apart. Higher therefore signals lower affinity. One may read the koff as the rate constant with which the complex falls apart. A high value points to fast dissociation. In general, kon refers to the second-order rate constant of association.

The values above are taken from paper PMC10641266, “Sequence tolerance of immunoglobulin variable domain framework regions to noncanonical intradomain disulfide linkages” (The Journal of Biological Chemistry, 2023).
